From article PMC8308607, “Antistaphylococcal Activity of the FtsZ Inhibitor C109” (Pathogens, 2021)

Biological target: the molecule itself
Test: co-sedimentation; polymerization (sedimentation) assay: 12 μM SaFtsZ, 2 mM GTP, 50 mM MES pH 6.5, 5 mM Mg(CH3COO)2, 100 mM CH3CO2K, 10 min at 30 °C, ultracentrifuged at 350,000 x g for 10 min at 25 °C, pellet and supernatant on SDS-PAGE; with or without 50 μM C109

B1: wild-type FtsZ of S. aureus (natural protein, Staphylococcus aureus ATCC 25923, UniProt P0A031 1-390, looked up)
chain: MLEFEQGFNHLATLKVIGVGGGGNNAVNRMIDHGMNNVEFIAINTDGQALNLSKAESKIQIGEKLTRGLGAGANPEIGKKAAEESREQIEDAIQGADMVFVTSGMGGGTGTGAAPVVAKIAKEMGALTVGVVTRPFSFEGRKRQTQAAAGVEAMKAAVDTLIVIPNDRLLDIVDKSTPMMEAFKEADNVLRQGVQGISDLIAVSGEVNLDFADVKTIMSNQGSALMGIGVSSGENRAVEAAKKAISSPLLETSIVGAQGVLMNITGGESLSLFEAQEAADIVQDAADEDVNMIFGTVINPELQDEIVVTVIATGFDDKPTSHGRKSGSTGFGTSVNTSSNATSKDESFTSNSSNAQATDSVSERTHTTKEDDIPSFIRNREERRSRRTRR
notes: FtsZ, cell division protein, Staphylococcus aureus ATCC 25923; full-length ftsZ gene (1173 bp) amplified from genomic DNA; Cloned into pETSUMO by In-Fusion; also called SaFtsZ; full-length S. aureus FtsZ; source: E. coli BL21(DE3), purified (HisTrap HP nickel column, SUMO protease, Superdex-75 SEC)
binding result: binds
